Assay results reported in US20250179161A1 (OTHAIR PROTHENA, published 2025).
Substitutions are numbered along the chain they refer to. Several values for one entry are separate records, joined by “and”; a condition that tells them apart may be missing. Equal entries are not always repeated.

Legend:
[1] = molecular target: Amyloid Beta (Aβ) 1-42 (human); assay: cell-based or functional assay
[2] = molecular target: T1, Amyloid Beta (Aβ) 1-42 (human); assay: SPR (BIAcore T200), Aβ1-42 fibrils immobilized on CM5, antibody as analyte, global 1:1 fit
T1 construct: The same peptide was used in several aggregation states: fibrils, a heterogeneous aggregate mixture, and soluble oligomers or aggregates; also called Aβ42; Aβ 42

[3] = molecular target: T1, Amyloid Beta (Aβ) 1-42; assay: direct ELISA, antibody titrated on 2.5 ug/ml plate-coated fibril Abeta; the row head of the drawn table reads 'IC50', the note below it says EC50; no unit in the table, x axis 'log ng/ml antibody' [left panel]
[4] = molecular target: T1, Amyloid Beta (Aβ) 1-42; assay: SPR (BIAcore T200), Aβ1-42 fibrils immobilized on CM5, antibody as analyte, global 1:1 fit; apparent KD
[5] = molecular target: T1, Amyloid Beta (Aβ) 1-42; assay: cell-based or functional assay; remark: listed apart in the source
[6] = molecular target: T1, Amyloid Beta (Aβ) 1-42; assay: direct ELISA on fibrillar Aβ1-42
[7] = molecular target: T1, Amyloid Beta (Aβ) 1-42; assay: direct ELISA, fibril aBeta plate coat titrated, antibody held constant at 2 ug/ml; no unit in the table, x axis 'log ng/ml Abeta' [right panel]
[8] = molecular target: T1, Amyloid Beta (Aβ) 1-42; assay: direct ELISA on plate-coated Aβ42 fibrils (FIG. 21)
[9] = molecular target: T1, Amyloid Beta (Aβ) 1-42; assay: competition ELISA, plate coated with fibril Aβ42, competitor hBP-biotin; IC50 of test divided by IC50 of hBP
[10] = molecular target: T1, Amyloid Beta (Aβ) 1-42; assay: competition ELISA on plate-coated Aβ42 fibrils; competitor: biotinylated hBP (bapineuzumab)
[11] = molecular target: T1, Amyloid Beta (Aβ) 1-42; assay: SPR (BIAcore T200), Aβ1-42 fibrils immobilized on CM5, Fab as analyte, global 1:1 fit; apparent KD
[12] = molecular target: T1, Amyloid Beta (Aβ) 1-42; assay: direct ELISA on plate-coated Aβ42 fibrils (FIG. 21); this end is tied to h2726 by the EC50 values of Table 7
[13] = molecular target: T1, Amyloid Beta (Aβ) 1-42; assay: SPR on Aβ1-42 fibrils; this end is tied to h2726 by the KD values of Table 6
[14] = molecular target: T1, Amyloid Beta (Aβ) 1-42; assay: SPR (BIAcore T200), Aβ1-42 fibrils immobilized on CM5, Fab as analyte, global 1:1 fit
[15] = molecular target: T1, Amyloid Beta (Aβ) 1-42; assay: direct ELISA on plate-coated Aβ42 fibrils (FIG. 21); this end is tied to h2831 by the EC50 values of Table 7
[16] = molecular target: T1, Amyloid Beta (Aβ) 1-42; assay: SPR on Aβ1-42 fibrils; this end is tied to h2831 by the KD values of Table 6

T1 sequence (peptide, as listed by the source): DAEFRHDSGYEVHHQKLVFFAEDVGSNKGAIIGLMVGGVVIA

B1: h2731 (antibody, V domains shown)
VH: EVQLLESGGGLVQPGGSLRLSCAASGFTFSNYGMSWVRQAPGKGLEWVASIRSGSGRTYYSDNVKGRFTISRDNSKNTLYLQMNSLRAEDTAVYYCVRYDHYSGSSDYWGQGTLVTVSS
VL: DVVMTQSPLSLPVTLGEPASISCKSSQSLLDYDGKTYLNWLLQKPGQSPQRLIYRVTNRDTGVPDRFSGSGSGTDFTLKISRVEAEDVGVYYCWQGTHFPRSFGQGTKVEIK
notes: Humanized IgG
- IC50 of Abeta spots per neuron (% Abeta control); the table gives no unit, the x axis is 'mAb (µg/mL)' [1]: 0.47 µg/mL
- Total Area (under the curve of Abeta spots per neuron, % Abeta control) [1]: 7520
- koff [2]: 2.62e-05 s⁻¹
- kon [2]: 372000 M⁻¹ s⁻¹
- EC50 [3]: 0.0387 mg/L
- Kd [4]: 0.0704 nM
- blockade of binding of soluble Aβ to rat hippocampal synapses at 1:50 molar mAb:Aβ42 ratio [5]: > 90%
- EC50 [6]: 0.0081 µg/mL and 0.054 nM
- IC50 (half-maximal fibril Abeta coating concentration at constant antibody) [7]: 0.44 mg/L
- fold increase in assay signal (OD490) relative to aducanumab [8]: 3 fold
- IC50 ratio (test:hBP) [9]: 0.61

B2: h2826 (antibody, V domains shown)
VH: B1 VH with Y32F, I51V, S105T
VL: B1 VL with L15P, R55K, T57S, T61S, S102T
- IC50 ratio (test:hBP) [9]: 1.1

B3: 4918 (antibody, V domains shown)
VH: B1 VH with Y32F, I51V, S55G, S105T
VL: B1 VL with L30M, Y32T, R55K, T57S, D60E, T61S, S102T
notes: It is not in the first reading's list; also called h4918G; h4918
- binding result [10]: binds

B4: bapineuzumab Fab (Fab, V domains shown)
VH: B1 VH with S55G
VL: B1 VL with L15P, Y32S, R55L, T57S, N58K, R59L, T61S, S102T
notes: also called hBP
- Kd [11]: 5.34 nM

B5: h49k3G (antibody, V domains shown)
VH: B1 VH with Y32F, I51V, S55G, S105T
VL: B1 VL with Y32S, R55K, T57S, T61S, S102T
notes: also called h49_hum3; 49human3
- IC50 ratio (test:hBP) [9]: 2.16

B6: h2726 (antibody, V domains shown)
VH: B1 VH
VL: B1 VL with L15P, R55K, T57S, T61S, S102T
notes: Humanized IgG, detected with anti-human IgG
- IC50 of Abeta spots per neuron (% Abeta control); the table gives no unit, the x axis is 'mAb (µg/mL)' [1]: 1.67 µg/mL
- Total Area (under the curve of Abeta spots per neuron, % Abeta control) [1]: 9070
- koff [2]: 2.12e-05 s⁻¹
- kon [2]: 393000 M⁻¹ s⁻¹
- EC50 [3]: 0.0403 mg/L
- Kd [4]: 0.054 nM
- fold lower estimated EC50 relative to aducanumab [12]: 15 to 20 fold
- IC50 (half-maximal fibril Abeta coating concentration at constant antibody) [7]: 0.387 mg/L
- fold greater avidity (apparent KD) than aducanumab [13]: 5 to 11 fold
- fold increase in assay signal (OD490) relative to aducanumab [8]: 3 fold
- IC50 ratio (test:hBP) [9]: 0.68

B7: h2726 Fab (Fab, V domains shown)
VH: B1 VH
VL: B1 VL with L15P, R55K, T57S, T61S, S102T
- koff [14]: 0.000259 s⁻¹
- kon [14]: 129000 M⁻¹ s⁻¹
- Kd [11]: 2.01 nM

B8: h2727 (antibody, V domains shown)
VH: B1 VH
VL: B1 VL with L15P, R55K, T57S, T61S
- IC50 ratio (test:hBP) [9]: 3.06

B9: h2731 Fab (Fab, V domains shown)
VH: B1 VH
VL: B1 VL
- koff [14]: 0.000289 s⁻¹
- kon [14]: 129000 M⁻¹ s⁻¹
- Kd [11]: 2.24 nM

B10: h2831 (antibody, V domains shown)
VH: B1 VH with Y32F, I51V, S105T
VL: B1 VL
notes: Humanized IgG
- IC50 of Abeta spots per neuron (% Abeta control); the table gives no unit, the x axis is 'mAb (µg/mL)' [1]: 0.924 µg/mL
- Total Area (under the curve of Abeta spots per neuron, % Abeta control) [1]: 6500
- koff [2]: 2.94e-05 s⁻¹
- kon [2]: 265000 M⁻¹ s⁻¹
- fold lower estimated EC50 relative to aducanumab [15]: 15 to 20 fold
- EC50 [3]: 0.0462 mg/L
- Kd [4]: 0.111 nM
- IC50 (half-maximal fibril Abeta coating concentration at constant antibody) [7]: 0.412 mg/L
- fold greater avidity (apparent KD) than aducanumab [16]: 5 to 11 fold
- fold increase in assay signal (OD490) relative to aducanumab [8]: 3 fold
- IC50 ratio (test:hBP) [9]: 0.77

B11: h2831 Fab (Fab, V domains shown)
VH: B1 VH with Y32F, I51V, S105T
VL: B1 VL
- koff [14]: 0.000248 s⁻¹
- kon [14]: 108000 M⁻¹ s⁻¹
- Kd [11]: 2.31 nM

B12: h2926 (antibody, V domains shown)
VH: B1 VH with Y32F, I51V, S103T, S105T
VL: B1 VL with L15P, R55K, T57S, T61S, S102T
- IC50 ratio (test:hBP) [9]: 0.99

B13: h2927 (antibody, V domains shown)
VH: B1 VH with Y32F, I51V, S103T, S105T
VL: B1 VL with L15P, R55K, T57S, T61S
- IC50 ratio (test:hBP) [9]: 1.6

B14: h2929 (antibody, V domains shown)
VH: B1 VH with Y32F, I51V, S103T, S105T
VL: B1 VL with L15P, K24R, L30V, K44R, R55K, T57S, T61S, T97S, F103Y
- IC50 ratio (test:hBP) [9]: 1.16

B15: h2931 (antibody, V domains shown)
VH: B1 VH with Y32F, I51V, S103T, S105T
VL: B1 VL
notes: Humanized IgG
- IC50 of Abeta spots per neuron (% Abeta control); the table gives no unit, the x axis is 'mAb (µg/mL)' [1]: 0.627 µg/mL
- Total Area (under the curve of Abeta spots per neuron, % Abeta control) [1]: 8480
- koff [2]: 2.05e-05 s⁻¹
- kon [2]: 335000 M⁻¹ s⁻¹
- EC50 [3]: 0.0435 mg/L
- Kd [4]: 0.0612 nM
- IC50 (half-maximal fibril Abeta coating concentration at constant antibody) [7]: 0.335 mg/L
- fold increase in assay signal (OD490) relative to aducanumab [8]: 3 fold
- IC50 ratio (test:hBP) [9]: 0.59

B16: h2931 Fab (Fab, V domains shown)
VH: B1 VH with Y32F, I51V, S103T, S105T
VL: B1 VL
- koff [14]: 0.000199 s⁻¹
- kon [14]: 123000 M⁻¹ s⁻¹
- Kd [11]: 1.62 nM

B17: h3818G (antibody, V domains shown)
VH: B1 VH with S30A, I51V, S55G, G56S
VL: B1 VL with L30M, Y32T, R55K, T57S, D60E, T61S, S102T
- IC50 ratio (test:hBP) [9]: 1.18

B18: h4917G (antibody, V domains shown)
VH: B1 VH with Y32F, I51V, S55G, S105T
VL: B1 VL with Y32S, R55K, D60E, T61S
notes: also called h49_VK17
- IC50 ratio (test:hBP) [9]: 2.69

B19: h4921G (antibody, V domains shown)
VH: B1 VH with Y32F, I51V, S55G, S105T
VL: B1 VL with Y32S, S102T
- IC50 ratio (test:hBP) [9]: 1.01
